Kd and EC50 (read off the curve) data for 30 molecules are collected here from US20250109203A1.

The chains are these.
B1: hu1D7v158-1 VHH-hIgG1 Fc-NNT (monomeric) (VHH)
VHH: EVQLLESGGGEVQPGGSLRLSCVASRGKISQYRMGWVRQAPGKQRELVAHISNTGDAAEYVAPVKGRFTISRDNAKNALYLQMNSLRAEDTAVYKCNTVEDILAWGQGTLVTVEP
B2: hu1D7v158-3 VHH-hIgG1 Fc-NNT (monomeric) (VHH)
VHH: EVQLLESGGGEVQPGGSLRLSCVASRGKISQYRMGWYRQAPGKQRELVAAISNTGDAAEYVAPVKGRFTISRDNAKNALYLQMNSLRAEDTAVYKCNTVEDILAWGQGTLVTVEP
B3: hu1D7v158-5 VHH-hIgG1 Fc-NNT (monomeric) (VHH)
VHH: EVQLLESGGGEVQPGGSLRLSCVASRGKISQYRMGWYRQAPGKQRELVAHISNTGDAAEYVEPVKGRFTISRDNAKNALYLQMNSLRAEDTAVYKCNTVEDILAWGQGTLVTVEP
B4: hu1D7v158-4 VHH-hIgG1 Fc-NNT (monomeric) (VHH)
VHH: EVQLLESGGGEVQPGGSLRLSCVASRGKISQYRMGWYRQAPGKQRELVAHISNTGDAAEYAAPVKGRFTISRDNAKNALYLQMNSLRAEDTAVYKCNTVEDILAWGQGTLVTVEP
B5: hu1D7v158-6 VHH-hIgG1 Fc-NNT (monomeric) (VHH)
VHH: EVQLLESGGGEVQPGGSLRLSCVASRGKISQYRMGWYRQAPGKQRELVAHISNTGDAAEYVASVKGRFTISRDNAKNALYLQMNSLRAEDTAVYKCNTVEDILAWGQGTLVTVEP
B6: hu1D7v158-10 VHH-hIgG1 Fc-NNT (monomeric) (VHH)
VHH: EVQLLESGGGEVQPGGSLRLSCVASRGKISQYRMGWYRQAPGKQRELVAHISNTGDAAEYVAPVKGRFTISRDNAKNALYLQMNSLRAEDTAVYYCNTVEDILAWGQGTLVTVEP
B7: hu1D7v158-7 VHH-hIgG1 Fc-NNT (monomeric) (VHH)
VHH: EVQLLESGGGEVQPGGSLRLSCVASRGKISQYRMGWYRQAPGKQRELVAHISNTGDAAEYVAPVKGRFTISRDNAKNTLYLQMNSLRAEDTAVYKCNTVEDILAWGQGTLVTVEP
B8: hu1D7v158-9 VHH-hIgG1 Fc-NNT (monomeric) (VHH)
VHH: EVQLLESGGGEVQPGGSLRLSCVASRGKISQYRMGWYRQAPGKEREFVAHISNTGDAAEYVAPVKGRFTISRDNAKNALYLQMNSLRAEDTAVYKCNTVEDILAWGQGTLVTVEP
B9: hu1D7v158-2 VHH-hIgG1 Fc-NNT (monomeric) (VHH)
VHH: EVQLLESGGGEVQPGGSLRLSCVASRGKISQYRMGWYRQAPGKQRELVSHISNTGDAAEYVAPVKGRFTISRDNAKNALYLQMNSLRAEDTAVYKCNTVEDILAWGQGTLVTVEP
B10: hu1D7v158-8 VHH-hIgG1 Fc-NNT (monomeric) (VHH)
VHH: EVQLLESGGGEVQPGGSLRLSCVASRGKISQYRMGWYRQAPGKQRELVAHISNTGDAAEYAESVKGRFTISRDNAKNALYLQMNSLRAEDTAVYKCNTVEDILAWGQGTLVTVEP
B11: hu1D7v3 VHH-hIgG1 Fc-NNT (monomeric) (VHH)
VHH: EVQLLESGGGEVQPGGSLRLSCVASGGKISQYRMGWYRQAPGKGLEWVAHISNTGDAAEYVDSVKGRFTISRDSTKNAVYLQMSSLRAEDTAVYKCNSVEDILAWGQGTLVTVKP
B12: 1D7v125 VHH-hIgG1 Fc-NNT (monomeric) (VHH)
VHH: EVQLLESGGGEVQPGGSLRLSCVASRGKISQYRMGWYRQAPGKERELVAHISNTGDAAEYVEGVKDRFTISRDSTKNALYLQMSSLRAEDTAVYKCNSVEDILAWGQGTLVTVRP
B13: 1D7v139 VHH-hIgG1 Fc-NNT (monomeric) (VHH)
VHH: EVQLLESGGGEVQPGGSLRLSCVASRGKISQYRMGWYRQAPGKERELVAHISNTGDAAEYVLSVKDRFTISRDSTKNALYLQMSSLRAEDTAVYKCNSVEDILAWGQGTLVTVRP
B14: hu1D7v5 VHH-hIgG1 Fc-NNT (monomeric) (VHH)
VHH: EVQLLESGGGEVQPGGSLRLSCVASRGTISQYRMGWYRQAPGKGLEWVAHISNTGDAAEYVDSVKGRFTISRDSTKNAVYLQMSSLRAEDTAVYKCNSVEDILAWGQGTLVTVKP
B15: 1D7v124 VHH-hIgG1 Fc-NNT (monomeric) (VHH)
VHH: EVQLLESGGGEVQPGGSLRLSCVASRGKISQYRMGWYRQAPGKERELVAHISNTGDAAEYVDGVKDRFTISRDSTKNALYLQMSSLRAEDTAVYKCNSVEDILAWGQGTLVTVRP
B16: hu1D7v92 VHH-hIgG1 Fc-NNT (monomeric) (VHH)
VHH: EVQLLESGGGEVQPGGSLRLSCVASRGKISQYRMGWYRQAPGKERELVAHISNTGDAAEYVDSVKDRFTISRDSTKNALYLQMSSLRAEDTAVYKCQNVEDILAWGQGTLVTVRP
B17: hu1D7v99 VHH-hIgG1 Fc-NNT (monomeric) (VHH)
VHH: EVQLLESGGGEVQPGGSLRLSCVASRGKISQYRMGWYRQAPGKERELVAHISNTGDAAEYVSSVKDRFTISRDSTKNALYLQMSSLRAEDTAVYKCNSVEDILAWGQGTLVTVRP
B18: hu1D7v98 VHH-hIgG1 Fc-NNT (monomeric) (VHH)
VHH: EVQLLESGGGEVQPGGSLRLSCVASRGKISQYRMGWYRQAPGKERELVAHISNTGDAAEYVLSVKDRFTISRDSTKNALYLQMSSLRAEDTAVYKCNSVEDILAWGQGTLVTVRP
B19: hu1D7v102 VHH-hIgG1 Fc-NNT (monomeric) (VHH)
VHH: EVQLLESGGGEVQPGGSLRLSCVASRGKISQYRMGWYRQAPGKELEWVAHISNTGDAAEYVDSVKDRFTISRDSTKNALYLQMSSLRAEDTAVYKCNTVEDILAWGQGTLVTVRP
B20: hu1D7v94 VHH-hIgG1 Fc-NNT (monomeric) (VHH)
VHH: EVQLLESGGGEVQPGGSLRLSCVASRGKISQYRMGWYRQAPGKERELVAHISNTGDAAEYVDSVKDRFTISRDSTKNALYLQMSSLRAEDTAVYKCSNVEDILAWGQGTLVTVRP
B21: hu1D7v100 VHH-hIgG1 Fc-NNT (monomeric) (VHH)
VHH: EVQLLESGGGEVQPGGSLRLSCVASRGKISQYRMGWYRQAPGKERELVAHISNTGDAAEYVDSVKDRFTISRDSTKNALYLQMSSLRAEDTAVYYCNSVEDILAWGQGTLVTVRP
B22: hu1D7v10 VHH-hIgG1 Fc-NNT (monomeric) (VHH)
VHH: EVQLLESGGGEVQPGGSLRLSCVASRGKISQYRMGWYRQAPGKGLEWVSHISNTGDAAEYVDSVKGRFTISRDSTKNAVYLQMSSLRAEDTAVYKCNSVEDILAWGQGTLVTVKP
B23: hu1D7v86 VHH-hIgG1 Fc-NNT (monomeric) (VHH)
VHH: EVQLLESGGGEVQPGGSLRLSCVASRGKISQYRMGWYRQAPGKERELVAHISNTGDAAEYVGGVKDRFTISRDSTKNALYLQMSSLRAEDTAVYKCNSVEDILAWGQGTLVTVRP
B24: hu1D7v101 VHH-hIgG1 Fc-NNT (monomeric) (VHH)
VHH: EVQLLESGGGEVQPGGSLRLSCVASRGKISQYRMGWYRQAPGKERELVAHISNTGDAAEYVDSVKDRFTISRDSTKNALYLQMSSLRAEDTAVYKCAAVEDILAWGQGTLVTVRP
B25: 1D7v112 VHH-hIgG1 Fc-NNT (monomeric) (VHH)
VHH: EVQLLESGGGEVQPGGSLRLSCVASRGKISQYRMGWYRQAPGKERELVAHISNTGDAAEYVDVVKDRFTISRDSTKNALYLQMSSLRAEDTAVYKCNSVEDILAWGQGTLVTVRP
B26: hu1D7v96 VHH-hIgG1 Fc-NNT (monomeric) (VHH)
VHH: EVQLLESGGGEVQPGGSLRLSCVASRGKISQYRMGWYRQAPGKERELVAHISNTGDAAEYVYSVKDRFTISRDSTKNALYLQMSSLRAEDTAVYKCNSVEDILAWGQGTLVTVRP
B27: hu1D7v93 VHH-hIgG1 Fc-NNT (monomeric) (VHH)
VHH: EVQLLESGGGEVQPGGSLRLSCVASRGKISQYRMGWYRQAPGKERELVAHISNTGDAAEYVDSVKDRFTISRDSTKNALYLQMSSLRAEDTAVYKCNQVEDILAWGQGTLVTVRP
B28: hu1D7v85 VHH-hIgG1 Fc-NNT (monomeric) (VHH)
VHH: EVQLLESGGGEVQPGGSLRLSCVASRGKISQYRMGWYRQAPGKERELVAHISNTGDAAEYVSGVKDRFTISRDSTKNALYLQMSSLRAEDTAVYKCNSVEDILAWGQGTLVTVRP
B29: 1D7v113 VHH-hIgG1 Fc-NNT (monomeric) (VHH)
VHH: EVQLLESGGGEVQPGGSLRLSCVASRGKISQYRMGWYRQAPGKERELVAHISNTGDAAEYVDLVKDRFTISRDSTKNALYLQMSSLRAEDTAVYKCNSVEDILAWGQGTLVTVRP
B30: 1D7×HSA×IL-2_X (anti-γδTCR-1D7 VHH - anti-HSA VHH - IL-2_X) (protein, part only; not given: anti-albumin VHH and linkers, part only)
chain, part: QVQLVQSGGGLVQPGGSLRLSCVASRGKISQYRMGWYRQAPGKQRELVAHISNTGDAAEYVDSVKGRFTISRDSTKNAVYLQMNSLKPEDTAVYKCNSVEDILAWGQGTQVTVKPAPASSSTKKTQLQLEALLLDLQMILNGINNYKNPKLTRMLTFKFYMPKKATELKHLQCLERELKRLEEVLNLAQSKNFHLRPRYLISNINVIVLELKGSETTFMCEYADETATIVEFLNRWITFSQSIISTLT

The first test has as its target human γδ TCR (Vγ9Vδ2) on human Vδ2+ γδ T cells (human) (UniProt A0JD36). The test can be described thus: flow cytometry on expanded human Vδ2+ γδ T cells, nonlinear fit.
B1 returned a Kd of 205 nM.

B2 gave a Kd of 28 nM.

B3 returned a Kd of 2.82 nM.

On to B4, for which the Kd was found to be 3.13 nM.

B5 returned a Kd of 2.82 nM.

As to B6, the Kd was 4.97 nM.

For B7, the Kd is 3.47 nM.

Consider B8, for which the Kd turned out to be 20 nM.

In turn, B9 registered a Kd of 3.28 nM.

Take B10: the Kd was 2.93 nM.

For B11, the Kd came to 51.1 nM.

B12 returned a Kd of 59 nM.

The molecule B13 registered a Kd of 341 nM.

Consider B14, for which the Kd worked out at 108 nM.

With B15, the Kd is 72.2 nM.

For the molecule B16, the Kd was found to be 104 nM.

The molecule B17 displayed a Kd of 116 nM.

On to B18, for which the Kd worked out at 114 nM.

In turn, B19 showed a Kd of 18 nM.

B20 showed a Kd of 752 nM.

In the case of B21, the Kd worked out at 61.9 nM.

Turning to B22, the Kd was determined as 60.9 nM.

B23 came in with a Kd of 126 nM.

B24 had a Kd of 270 nM.

B25 returned a Kd of 226 nM.

Regarding B26, the Kd turned out to be 191 nM.

For the molecule B27, the Kd turned out to be 1090 nM.

In turn, B28 registered a Kd of 168 nM.

B29 displayed a Kd of 192 nM.

Another test has the same target. The test is described as follows: flow cytometry on zoledronate-expanded human γδ T cells gated Vδ2+, anti-VHH Alexa647, MdFI.
B30: the EC50 (read off the curve) stood at 5 nM.

Another test shares this target. The test can be described thus: flow cytometry, monomeric VHH-hIgG1 Fc fusion on expanded human Vδ2+ γδ T cells, anti-human Fc A647, MFI.
B11 gave an EC50 (read off the curve) of 20 nM.

Molecule B14 had an EC50 (read off the curve) of 30 nM.

B17 gave an EC50 (read off the curve) of 60 nM.

B23 yielded an EC50 (read off the curve) of 60 nM.

In the case of B28, the EC50 (read off the curve) was found to be 70 nM.
